Reference: patent publication US5532348 (United States of America, dated 1996)

Tests used:
[1] = target: GST-p53 (glutathione S-transferase fusion of wild-type p53) (Homo sapiens (Human), UniProt P04637); test: GST-p53 pull-down of 35S-labelled E6-AP variant in the presence of HPV16 E6
[2] = target: T1, GST fusion to HPV 11 E6 (human papillomavirus type 11, UniProt P04019); test: GST pull-down of 35S-labelled translate, no p53
T1 sequence: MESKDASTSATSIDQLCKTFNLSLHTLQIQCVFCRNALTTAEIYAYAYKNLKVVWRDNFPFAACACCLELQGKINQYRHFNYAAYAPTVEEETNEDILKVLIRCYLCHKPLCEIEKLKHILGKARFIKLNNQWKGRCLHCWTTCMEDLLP

[3] = target: GST (with no fusion) (Schistosoma japonicum (Blood fluke), UniProt P08515 = GST); test: GST pull-down of 35S-labelled translate, no p53
[4] = target: T2, HPV11 E6, wheat germ extract translated (human papillomavirus type 11, UniProt P04019); test: GST-E6-AP fusion on glutathione-Sepharose, 35S-labelled E6
T2 sequence: T1 sequence

B1: E6-AP N-terminally truncated form beginning at amino acid 322 (other)
chain: YNADQIRRMMETFQQLITYKVISNEFNSRNLVNDDDAIVAASKCLKMVYYANVVGGEVDTNHNEEDDEEPIPESSELTLQELLGEERRNKKGLRVDPLETELGVKTLDCRKPLIPFEEFINEPLNEVLEMDKDYTFFKVETENKFSFMTCPFILNAVTKNLGLYYDNRIRMYSERRITVLTSLVQGQQLNPYLRLKVRRKHIIDDALVRLEMIAMENPADLKKQLYVEFEGEQGVDEGGVSKEFFQLVVEEIFNPDIGMFTYDESTKLFWFNPSSFETEGQFTLIGIVLGLAIYNNCILDVHGPMVVYRKLMGKKGTFRDLGDSHPVLYQSLKDLLEYVGNVEDDMMITFQISQTNLFQNPMMYDLKENGDKIPITNENRKEFVNLYSDYILNKSVEKQFKAFRRGRHMVTNESPLKYLFRPEEIELLICGSRNLDFQALEETTEYDGGYTRDSVLIREFWEIVHSFTDEQKRLFLQFTTGRDRAPVGGLGKLKMIIAKNGPDTERLPTSHTCFNVLLLPEYSSKEKLKERLLKAITYAKGFGM
[1]
  binding result: no binding

B2: 95 kd in vitro translated form of E6-AP (amino acids 37 to 865 of SEQ ID NO:1) (other)
chain: EACTNEFCASCPTFLRMDNKAAAIKALELYKINAKLCDPHPSKKGASSAYLENSKGAPNNSCSEIKMNKKGARIDFKDVTYLTEEKVYEILELCREREDYSPLIRVIGRVFSSAEALVQSFRKVKQHTKEELKSLQAKDEDKDEDEKEKAACSAAAMEEDSEEASSSRIGDSSQGDNNLQKLGPDDVSVDIDAIRRVYTRLLSNEKIETAFLNALVYLSPNVECDLTYHNVYSRDPNYLNLFIIGMENRNLHSPEYLEMALPLFCKAMSKLPLAAQGKLIRLWSKYNADQIRRMMETFQQLITYKVISNEFNSRNLVNDDDAIVAASKCLKMVYYANVVGGEVDTNHNEEDDEEPIPESSELTLQELLGEERRNKKGLRVDPLETELGVKTLDCRKPLIPFEEFINEPLNEVLEMDKDYTFFKVETENKFSFMTCPFILNAVTKNLGLYYDNRIRMYSERRITVLTSLVQGQQLNPYLRLKVRRKHIIDDALVRLEMIAMENPADLKKQLYVEFEGEQGVDEGGVSKEFFQLVVEEIFNPDIGMFTYDESTKLFWFNPSSFETEGQFTLIGIVLGLAIYNNCILDVHGPMVVYRKLMGKKGTFRDLGDSHPVLYQSLKDLLEYVGNVEDDMMITFQISQTNLFQNPMMYDLKENGDKIPITNENRKEFVNLYSDYILNKSVEKQFKAFRRGRHMVTNESPLKYLFRPEEIELLICGSRNLDFQALEETTEYDGGYTRDSVLIREFWEIVHSFTDEQKRLFLQFTTGRDRAPVGGLGKLKMIIAKNGPDTERLPTSHTCFNVLLLPEYSSKEKLKERLLKAITYAKGFGM
[2]
  binding result: no binding
[3]
  binding result: no binding

B3: GST-75 kDa E6-AP fusion protein (amino acids 212-865 of SEQ ID NO:1) (other)
chain: DNNLQKLGPDDVSVDIDAIRRVYTRLLSNEKIETAFLNALVYLSPNVECDLTYHNVYSRDPNYLNLFIIGMENRNLHSPEYLEMALPLFCKAMSKLPLAAQGKLIRLWSKYNADQIRRMMETFQQLITYKVISNEFNSRNLVNDDDAIVAASKCLKMVYYANVVGGEVDTNHNEEDDEEPIPESSELTLQELLGEERRNKKGLRVDPLETELGVKTLDCRKPLIPFEEFINEPLNEVLEMDKDYTFFKVETENKFSFMTCPFILNAVTKNLGLYYDNRIRMYSERRITVLTSLVQGQQLNPYLRLKVRRKHIIDDALVRLEMIAMENPADLKKQLYVEFEGEQGVDEGGVSKEFFQLVVEEIFNPDIGMFTYDESTKLFWFNPSSFETEGQFTLIGIVLGLAIYNNCILDVHGPMVVYRKLMGKKGTFRDLGDSHPVLYQSLKDLLEYVGNVEDDMMITFQISQTNLFQNPMMYDLKENGDKIPITNENRKEFVNLYSDYILNKSVEKQFKAFRRGRHMVTNESPLKYLFRPEEIELLICGSRNLDFQALEETTEYDGGYTRDSVLIREFWEIVHSFTDEQKRLFLQFTTGRDRAPVGGLGKLKMIIAKNGPDTERLPTSHTCFNVLLLPEYSSKEKLKERLLKAITYAKGFGM
[4]
  binding result: no binding

B4: GST-E6-AP fusion protein with amino acids 371 to 440 of SEQ ID NO:1 (SEQ ID NO:2) (other)
chain: ANVVGGEVDTNHNEEDDEEPIPESSELTLQELLGEERRNKKGLRVDPLETELGVKTLDCRKPLIPFEEFI
[4]
  binding result: no binding
